This note sets out measurements from article PMC12908443 (Nature metabolism, 2021).

For assay [1], the target named is T1, Recombinant 6 × His-tagged Acs2 (Acs2–His6) (budding yeast (S. cerevisiae), UniProt P52910 1-683).
T1 sequence (looked up): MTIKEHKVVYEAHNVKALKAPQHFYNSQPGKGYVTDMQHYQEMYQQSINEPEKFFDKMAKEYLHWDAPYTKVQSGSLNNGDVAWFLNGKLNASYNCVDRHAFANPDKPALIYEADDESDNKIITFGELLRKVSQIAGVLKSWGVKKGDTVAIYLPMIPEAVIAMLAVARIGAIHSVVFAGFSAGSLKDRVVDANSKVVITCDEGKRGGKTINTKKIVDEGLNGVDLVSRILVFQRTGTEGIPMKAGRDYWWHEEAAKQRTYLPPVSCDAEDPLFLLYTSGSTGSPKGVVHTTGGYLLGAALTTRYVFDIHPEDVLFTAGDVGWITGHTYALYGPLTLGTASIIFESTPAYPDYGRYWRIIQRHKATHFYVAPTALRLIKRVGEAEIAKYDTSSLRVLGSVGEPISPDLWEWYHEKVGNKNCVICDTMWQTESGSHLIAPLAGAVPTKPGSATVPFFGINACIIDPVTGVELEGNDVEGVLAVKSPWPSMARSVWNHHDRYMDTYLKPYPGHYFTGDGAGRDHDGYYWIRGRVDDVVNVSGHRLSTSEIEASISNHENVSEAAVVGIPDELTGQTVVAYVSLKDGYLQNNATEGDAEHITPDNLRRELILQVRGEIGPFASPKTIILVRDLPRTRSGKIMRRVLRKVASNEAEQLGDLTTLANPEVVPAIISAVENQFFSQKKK
Nature of the assay: pull-down.

In assay [2] the target is T2, Glutathione S-transferase (GST)–Acs2 (budding yeast (S. cerevisiae), UniProt P52910 1-683).
T2 sequence (looked up): T1 sequence (looked up)
The experiment in a line: pull-down.

B1: Recombinant CL7-tagged Sas2 (Sas2–CL7) (enzyme, budding yeast (S. cerevisiae), UniProt P40963 1-338, looked up)
chain: MARSLSQSLTATTQKLKGKKNGGKGKNKPSAKIKKTQKEMLYGILNERNIRQIQFGLNKKFSTWYGSAVYFDPETKRLGCSETKGQLSSVSNSQYWLDTLFVCEYCFKYTDDQTRFVGHVASCPFQYRVPGKIKYKSPEYTIRRVKGSKYQLFCQCLCLFTKLYLDNKSMYFKVDHYEFYIVYETGSTKPMGFFSKDLVSYQQNNLACILIFPPYQRRGLGLLLIEFSYKLSQLEGVISGPEVPLSPFGLIGYLKYWSQILCWHLIEGDLAHYDKVTLEDLSIVTGMRVNDVILTLKHLNCIGENNQIYLQSLNSWLKLHGTKRNWFKLKDEYLLIDD
For B1, in assay [1], the binding result is given as “binds”.

B2: Purified recombinant Sas2 (Sas2–His6) (enzyme, budding yeast (S. cerevisiae), UniProt P40963 1-338, looked up)
chain: B1 chain
As for B2, in assay [2], the binding result is recorded as “binds”.
